This note sets out measurements from the RNAGym collection of RNA variant scans (doi:10.7554/elife.80360).

To fix the notation:
B1: Hairpin Ribozyme (parent)
chain: GUCCUCUUUCACGUGCGCGUGAAAGAGAGAAGUGAACCAGAGAAACACACGUUGUGGUAUAUUACCUGGUA

The variants in this series derive from B1. Put plainly: self-cleavage, relative activity (ratio to wild type); higher = more cleavage; co-transcriptional.
On to G25A C65G, for which the self-cleavage amounted to 0.215.

Regarding G25A C65A, the self-cleavage was 0.615.

Regarding A23G U67A, the self-cleavage was determined as 0.105.

On to A23G U67C, for which the self-cleavage was 0.218.

A22U U62G: the self-cleavage was determined as 0.147.

A23G C46U: the self-cleavage was found to be 0.0862.

In the case of A24G U33A, the self-cleavage stood at 0.118.

With A24C G56A, the self-cleavage worked out at 0.1.

As to A24C G56C, the self-cleavage was determined as 0.115.

Regarding A24C G56U, the self-cleavage came to 0.231.

Regarding A23U U70A, the self-cleavage is 0.729.

Take A23U U70G: the self-cleavage worked out at 0.647.

For the variant A24G G42C, the self-cleavage was determined as 0.275.

On to A24G G42A, for which the self-cleavage came to 0.111.

As for A24G G42U, the self-cleavage was determined as 0.289.

For A23U G29C, the self-cleavage came to 0.145.

Consider A24G A30G, for which the self-cleavage is 0.0908.

Regarding A24G C50U, the self-cleavage was 0.371.

On to A24G C50G, for which the self-cleavage was 0.136.

Regarding A24U U62G, the self-cleavage was found to be 0.131.

Regarding A24C U58C, the self-cleavage amounted to 1.11.

For the variant A23C A47C, the self-cleavage was 0.417.

Turning to A23C A47U, the self-cleavage came to 0.0967.

In the case of A23G A64G, the self-cleavage came to 0.43.

Consider A23G A64U, for which the self-cleavage was 0.125.

On to A24G C65U, for which the self-cleavage turned out to be 0.371.

Consider A24G C65A, for which the self-cleavage is 0.706.

Regarding A23G G69U, the self-cleavage stood at 0.148.

Take A22U U67C: the self-cleavage was determined as 0.168.

Regarding A22U U67A, the self-cleavage is 0.188.

As to A24G A39C, the self-cleavage is 0.384.

For the variant A23G A59U, the self-cleavage was determined as 0.0772.

For A24U A28C, the self-cleavage was determined as 0.449.

For the variant A24U G27A, the self-cleavage was found to be 0.334.

Take A24G G27C: the self-cleavage amounted to 0.171.

Take G25A: the self-cleavage turned out to be 0.634.

Consider A22U U33G, for which the self-cleavage was determined as 0.174.

As to A23U G54U, the self-cleavage amounted to 0.538.

A23U G54C: the self-cleavage stood at 0.551.

A24G G68C: the self-cleavage came to 0.232.

Consider A24G G68U, for which the self-cleavage stood at 0.273.

With A24C G27U, the self-cleavage was determined as 0.284.

Turning to G25A A35C, the self-cleavage was found to be 0.738.

Consider A23G A30C, for which the self-cleavage was 0.115.

For the variant A23G A30U, the self-cleavage is 0.181.

As for A24U G51C, the self-cleavage was found to be 0.805.

As for A23G A36U, the self-cleavage was found to be 0.514.

For A23G A36G, the self-cleavage was found to be 0.933.

Regarding A23C U55C, the self-cleavage was determined as 0.184.

Regarding A24U A43U, the self-cleavage is 0.121.

As to A24U A61U, the self-cleavage stood at 0.187.

Regarding A23U A31U, the self-cleavage is 0.166.

With A23U A26C, the self-cleavage was determined as 0.545.

As to A23U A26U, the self-cleavage was determined as 0.606.

Consider A24C G54C, for which the self-cleavage was determined as 0.313.

With A24C G54U, the self-cleavage came out at 0.534.

In the case of A23G U55A, the self-cleavage was 0.273.

For A23G U55C, the self-cleavage stood at 0.322.

On to A24C U67C, for which the self-cleavage was 0.208.

With A24U G32U, the self-cleavage was found to be 0.128.

For the variant A23G A31C, the self-cleavage worked out at 0.194.

Regarding A23C A39C, the self-cleavage is 0.517.

For A23C U63C, the self-cleavage is 0.136.

On to A23G C66G, for which the self-cleavage was 0.265.

On to A23G C66A, for which the self-cleavage is 0.246.

Regarding A22U G69C, the self-cleavage was determined as 0.219.

Consider A23U U58C, for which the self-cleavage was found to be 1.05.

Consider A23U U58G, for which the self-cleavage was found to be 0.663.

For the variant A24G A64C, the self-cleavage amounted to 0.17.

Take A22U U58C: the self-cleavage was 1.04.

As for A23C G54A, the self-cleavage is 0.416.

As for A23C G54U, the self-cleavage was 0.7.

For A23U G40A, the self-cleavage worked out at 0.309.

In the case of A23C A49U, the self-cleavage was found to be 0.257.

As for A23C A49G, the self-cleavage is 0.393.

As to A23U A30C, the self-cleavage is 0.201.

On to A23U A30G, for which the self-cleavage is 0.228.

For A23U G42C, the self-cleavage was found to be 0.259.

Turning to A23U G42U, the self-cleavage was determined as 0.246.

For the variant A23U A45G, the self-cleavage is 0.129.

In the case of A22U U55A, the self-cleavage came out at 0.255.

As to A22U U55C, the self-cleavage turned out to be 0.178.

Regarding A24C A64U, the self-cleavage amounted to 0.172.

Turning to A23C G56C, the self-cleavage was 0.191.

As to A23U U67G, the self-cleavage was determined as 0.213.

A23U U67A: the self-cleavage was 0.237.

Regarding A23U U67C, the self-cleavage turned out to be 0.229.

Consider A24G A61G, for which the self-cleavage came out at 0.254.

As for A23C C37U, the self-cleavage is 0.444.

For G25A G32C, the self-cleavage amounted to 0.0951.

A23C G51U: the self-cleavage was determined as 0.993.

As for A23G A71C, the self-cleavage worked out at 1.37.

For the variant A24U U52A, the self-cleavage was found to be 0.925.

In the case of A24U U52G, the self-cleavage was 0.744.

As to A23U A24G, the self-cleavage stood at 0.587.

Take A24G G56A: the self-cleavage is 0.187.

As to A23U A35U, the self-cleavage amounted to 0.754.

As for A23C A41G, the self-cleavage came out at 0.928.

Turning to A23U A71U, the self-cleavage worked out at 0.66.

In the case of A24U A45U, the self-cleavage turned out to be 0.159.

A24G C66G: the self-cleavage turned out to be 0.226.

Take A24U A26C: the self-cleavage was 0.575.

A24U A26G: the self-cleavage amounted to 0.79.

For the variant A24U A26U, the self-cleavage was determined as 0.443.

For A24G A47U, the self-cleavage came out at 0.0569.

For the variant A23U G69U, the self-cleavage amounted to 0.247.

In the case of A22U U60A, the self-cleavage was 0.77.

On to A23G U62A, for which the self-cleavage was found to be 0.116.

In the case of A23G A49U, the self-cleavage worked out at 0.227.

Consider A23G A45C, for which the self-cleavage amounted to 0.0971.

For the variant A23G A45U, the self-cleavage came to 0.143.

Take A23G A45G: the self-cleavage was determined as 0.175.

With A23G A35G, the self-cleavage worked out at 0.939.

For A23U A39C, the self-cleavage is 0.483.

Take A24C G57A: the self-cleavage was determined as 0.24.

As for A23C A71G, the self-cleavage is 0.936.

As to A23C A71C, the self-cleavage came out at 1.16.

For A23G G42U, the self-cleavage is 0.359.

Consider A23G G42A, for which the self-cleavage worked out at 0.192.

In the case of A24U A49U, the self-cleavage amounted to 0.216.

Take A24U A49C: the self-cleavage amounted to 0.104.

For the variant A23U C46U, the self-cleavage was determined as 0.131.

In the case of A23G U70G, the self-cleavage is 0.759.

A24U A64G: the self-cleavage was determined as 0.492.

As to A24G U53A, the self-cleavage was 0.822.

In the case of A23G U58G, the self-cleavage worked out at 0.657.

As for A23C U62C, the self-cleavage was 0.206.

Turning to A23G C48G, the self-cleavage is 0.159.

Regarding A23G C48A, the self-cleavage was determined as 0.123.

Turning to A24C U60C, the self-cleavage is 0.972.

A24C U60A: the self-cleavage came out at 0.76.

Consider A24C U60G, for which the self-cleavage stood at 0.609.

On to A24G G29C, for which the self-cleavage is 0.174.

As for A24G G29U, the self-cleavage stood at 0.0932.

For the variant A23U G57A, the self-cleavage stood at 0.116.

As for A23U C48U, the self-cleavage is 0.118.

With A24G C46U, the self-cleavage was found to be 0.0984.

Regarding G25A A45U, the self-cleavage turned out to be 0.111.

For A23C G68U, the self-cleavage amounted to 0.262.

With A23C G68C, the self-cleavage was 0.138.

As for A23U G68U, the self-cleavage was 0.197.

Turning to G25A A49U, the self-cleavage worked out at 0.209.

As for A24C G32C, the self-cleavage is 0.131.

Take A24C G32A: the self-cleavage was 0.161.

Turning to A24U A31C, the self-cleavage worked out at 0.163.

Consider A23U A44G, for which the self-cleavage was 0.248.

Consider A23U A44U, for which the self-cleavage is 0.15.

Regarding A24G G69A, the self-cleavage stood at 0.392.

Take A23U A41U: the self-cleavage worked out at 1.07.

With A24U G25C, the self-cleavage was found to be 0.385.

A24U G25A: the self-cleavage was 0.219.

A24U A36G: the self-cleavage amounted to 0.943.

Consider A24U C37A, for which the self-cleavage was determined as 0.304.

In the case of A24C U63A, the self-cleavage turned out to be 0.0496.

A24C U63G: the self-cleavage is 0.0877.

In the case of A23U U63G, the self-cleavage was determined as 0.199.

As to G25A C48G, the self-cleavage amounted to 0.0903.

For the variant A23U C65U, the self-cleavage was 0.402.

On to A23U C65A, for which the self-cleavage is 0.752.

Consider A24C U33C, for which the self-cleavage stood at 0.16.

Consider A24G G40C, for which the self-cleavage came to 0.188.

As to A24G G40A, the self-cleavage was found to be 0.338.

In the case of A23G C65A, the self-cleavage came to 0.667.

As to A24C A31C, the self-cleavage is 0.209.

For A24C A31U, the self-cleavage stood at 0.107.

Consider A23U A47G, for which the self-cleavage amounted to 0.11.

In the case of A23U A47U, the self-cleavage was determined as 0.105.
